Ten molecules from paper PMC10079162 (Nature Communications, 2023) can be followed below.

To fix the notation:
B1: CR3022 M40P S56G Q67R; T59K (output_8) (antibody, V domains shown)
VH: QMQLVQSGTEVKKPGESLKISCKGSGYGFITYWIGWVRQPPGKGLEWMGIIYPGDGETRYSPSFQGRVTISADKSINTAYLQWSSLKASDTAIYYCAGGSGISTPMDVWGQGTTVTVVS
VL: not shown
B2: Nb.b201 WT (VHH)
VHH: QVQLQESGGGLVQAGGSLRLSCAASGYISDAYYMGWYRQAPGKEREFVATITHGTNTYYADSVKGRFTISRDNAKNTVYLQMNSLKPEDTAVYYCAVLETRSYSFRYWGQGTQVTVSS
notes: source: HEK293 cells; obtained at high purity
B3: Nb.b201 H53P (VHH)
VHH: QVQLQESGGGLVQAGGSLRLSCAASGYISDAYYMGWYRQAPGKEREFVATITPGTNTYYADSVKGRFTISRDNAKNTVYLQMNSLKPEDTAVYYCAVLETRSYSFRYWGQGTQVTVSS
notes: as for B2
B4: Nb.b201 H53P T55G (VHH)
VHH: QVQLQESGGGLVQAGGSLRLSCAASGYISDAYYMGWYRQAPGKEREFVATITPGGNTYYADSVKGRFTISRDNAKNTVYLQMNSLKPEDTAVYYCAVLETRSYSFRYWGQGTQVTVSS
notes: as for B2
B5: Nb.b201 A31D (VHH)
VHH: QVQLQESGGGLVQAGGSLRLSCAASGYISDDYYMGWYRQAPGKEREFVATITHGTNTYYADSVKGRFTISRDNAKNTVYLQMNSLKPEDTAVYYCAVLETRSYSFRYWGQGTQVTVSS
notes: as for B2
B6: Nb.b201 T55G (VHH)
VHH: QVQLQESGGGLVQAGGSLRLSCAASGYISDAYYMGWYRQAPGKEREFVATITHGGNTYYADSVKGRFTISRDNAKNTVYLQMNSLKPEDTAVYYCAVLETRSYSFRYWGQGTQVTVSS
notes: as for B2
B7: Nb.b201 A31D T55G (VHH)
VHH: QVQLQESGGGLVQAGGSLRLSCAASGYISDDYYMGWYRQAPGKEREFVATITHGGNTYYADSVKGRFTISRDNAKNTVYLQMNSLKPEDTAVYYCAVLETRSYSFRYWGQGTQVTVSS
notes: as for B2
B8: Nb.b201 T55D (VHH)
VHH: QVQLQESGGGLVQAGGSLRLSCAASGYISDAYYMGWYRQAPGKEREFVATITHGDNTYYADSVKGRFTISRDNAKNTVYLQMNSLKPEDTAVYYCAVLETRSYSFRYWGQGTQVTVSS
notes: as for B2
B9: Nb.b201 A31D T55D (VHH)
VHH: QVQLQESGGGLVQAGGSLRLSCAASGYISDDYYMGWYRQAPGKEREFVATITHGDNTYYADSVKGRFTISRDNAKNTVYLQMNSLKPEDTAVYYCAVLETRSYSFRYWGQGTQVTVSS
notes: as for B2
B10: Nb.b201 H53R (VHH)
VHH: QVQLQESGGGLVQAGGSLRLSCAASGYISDAYYMGWYRQAPGKEREFVATITRGTNTYYADSVKGRFTISRDNAKNTVYLQMNSLKPEDTAVYYCAVLETRSYSFRYWGQGTQVTVSS
notes: as for B2

In the first test the target is SARS CoV-2 RBD (SARS-CoV-2, strain  …, UniProt P0DTC2).
Experiment: not given
Conditions: not given
As to B1, the binding result was “binds”.

Another test addresses T1, human serum albumin (Homo sapiens, UniProt P02768).
T1 construct: also called HSA
The experiment in a line: BLI; format and conditions not told in the main text (methods are in the Supplementary Materials). As to conditions: both partners purified.
In the case of B2, the binding result is given as “binds”.
The same measure, in the same setting: next, B3: “binds”.
For B4, the binding result is “binds”.
For the molecule B5, the binding result is reported as “binds”.
Consider B6, for which the binding result is “binds”.
Take B7: the binding result is reported as “binds”.
On to B8, for which the binding result was “binds”.
Same read-out and setting: next, B9: “binds”; B10: “binds”.
